In paper PMC6162344:

Columns and labels:
[1] = biological target: Taxol-stabilised microtubules (TIRF) (pig) (UniProt P02550); assay: TIRF microscopy of single particles on microtubules
CENP-OPQU (human) = CENP-OPQU (human) (UniProt Q9BU64); assay: AUC
Chain of CENP-OPQU (human) (Q9BU64 whole entry, chain 1 of 4): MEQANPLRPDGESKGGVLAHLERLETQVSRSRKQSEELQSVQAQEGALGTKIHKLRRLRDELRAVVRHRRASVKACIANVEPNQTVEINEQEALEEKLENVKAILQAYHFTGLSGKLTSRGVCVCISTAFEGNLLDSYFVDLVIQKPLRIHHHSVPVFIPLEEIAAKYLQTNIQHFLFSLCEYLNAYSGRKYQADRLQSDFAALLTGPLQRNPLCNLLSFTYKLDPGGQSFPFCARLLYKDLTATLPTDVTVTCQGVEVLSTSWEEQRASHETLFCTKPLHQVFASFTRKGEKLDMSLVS
Chain of CENP-OPQU (human) (Q6IPU0 whole entry, chain 2 of 4, further chain): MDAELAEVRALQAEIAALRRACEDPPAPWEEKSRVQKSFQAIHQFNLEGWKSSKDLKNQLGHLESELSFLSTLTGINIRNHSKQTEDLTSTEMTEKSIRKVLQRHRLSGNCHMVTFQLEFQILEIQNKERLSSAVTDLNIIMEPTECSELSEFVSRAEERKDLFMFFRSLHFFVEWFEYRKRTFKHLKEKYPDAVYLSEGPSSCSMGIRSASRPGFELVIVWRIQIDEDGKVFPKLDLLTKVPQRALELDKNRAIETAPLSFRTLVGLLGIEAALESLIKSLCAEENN
Chain of CENP-OPQU (human) (Q7L2Z9 whole entry, chain 3 of 4, further chain): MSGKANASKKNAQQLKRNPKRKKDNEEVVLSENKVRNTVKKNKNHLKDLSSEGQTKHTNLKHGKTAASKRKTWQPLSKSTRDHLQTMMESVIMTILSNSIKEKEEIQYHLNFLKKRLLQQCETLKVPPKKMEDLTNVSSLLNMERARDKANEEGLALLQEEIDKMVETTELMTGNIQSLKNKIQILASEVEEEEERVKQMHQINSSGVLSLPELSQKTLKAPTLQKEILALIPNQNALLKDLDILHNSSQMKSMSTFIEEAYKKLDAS
Chain of CENP-OPQU (human) (Q71F23 whole entry, chain 4 of 4, further chain): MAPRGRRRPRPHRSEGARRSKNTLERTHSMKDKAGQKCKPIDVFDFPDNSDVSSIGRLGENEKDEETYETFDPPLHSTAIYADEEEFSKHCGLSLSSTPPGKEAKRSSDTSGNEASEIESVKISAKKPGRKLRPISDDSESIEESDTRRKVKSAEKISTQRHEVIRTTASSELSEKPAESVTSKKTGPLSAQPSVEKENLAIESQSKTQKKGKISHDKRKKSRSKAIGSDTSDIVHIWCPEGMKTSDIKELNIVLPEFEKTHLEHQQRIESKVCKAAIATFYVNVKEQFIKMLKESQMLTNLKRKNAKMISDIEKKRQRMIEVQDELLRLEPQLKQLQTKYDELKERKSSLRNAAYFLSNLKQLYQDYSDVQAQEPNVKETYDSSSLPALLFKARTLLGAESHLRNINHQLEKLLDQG

Chain of CENP-OPQU (Q9BU64 whole entry): as the sequence (Q9BU64 whole entry, chain 1 of 4) above
Chain of CENP-OPQU (Q6IPU0 whole entry): as the sequence (Q6IPU0 whole entry, chain 2 of 4, further chain) above
Chain of CENP-OPQU (Q7L2Z9 whole entry): as the sequence (Q7L2Z9 whole entry, chain 3 of 4, further chain) above
Chain of CENP-OPQU (Q71F23 whole entry): as the sequence (Q71F23 whole entry, chain 4 of 4, further chain) above

CENP-OPQU (from UniProt Q9BU64 1-300; Q6IPU0 1-288; Q7L2Z9 1-268; Q71F23 1-418) (complex)
mean time associated [1]: 131 s

CENP-R (co-expressed or co-lysed with CENP-OPQU subunits) (from UniProt Q13352 1-177) (natural protein)
stoichiometry N (CENP-OPQU (human)): 1
